Changes are numbered by the printed parent chain.
B1: Ab320 (antibody, V domains shown)
VH: QVQLQQSGAELVKPGASVKISCKASGYAFSSYWMNWVKQRPGKGLEWIGQIYPGDGDTNYNGKFKGKATLTADKSSSTAYMQLSSLTSEDSAVYFCASYYYGSKAYWGQGTLVTVSA
VL: DIQMTQSPASLAASVGETVTITCRASENIYYSLAWYQQKQGKSPQLLIYNANSLEDGVPSRFSGSGSGTQYSMKINSMQPEDTATYFCKQAYDVPFTFGSGTKLEIKR
notes: rodent hybridoma mAb
B2: Ab329 (antibody, V domains shown)
VH: QVQLKESGPGLVKPSATLSLTCTVSGFSLTSYHVCWIRQTPGKGLEWMGVIWGDGRTTYNPPLKSRLSISRDTSKSQVFLKMSSLKTEDTATYYCARATMTGHGDAWGQGASVTVSS
VL: DIQMTQSPASLSASLEEIVTITCQASQDIDNYLSWYQQKPGKSPHLLIHSATSLADGVPSRFSGGRSGTQFSLKINRLQVEDTGIYYCLQHYSGWTFGGGTKLELKR
notes: rodent hybridoma mAb
B3: Ab330 (antibody, V domains shown)
VH: EVQVVETGGGVVQPGKSLEITCATSGLTFSTAWMYWVRQSSDRRLEWIARIKDKSNKFASDYVESVRGRFTISRDDSRSSVYLQMNNLKEEDTATYYCTTSYGYAWGQGVMVTVSS
VL: DIQMTQSPSSMSASLGDRVTITCQASQDIGNYLIWFQQKPGKSPRPLIYYATNLANGVPSRFSGSRSGSEYSLTITSLESEDMADYHCLQYKQHLTFGSGTKLEIER
notes: rodent hybridoma mAb
B4: Ab332 (antibody, V domains shown)
VH: EVQLQQSGPELVKPGTSVKISCKASGYTFTDYYMNWMKQSHGKSLEWIGDINPNNGVTSYNQKFKGKATLTVDKSSSTAYMELRSLTSEDSAVYYCAREDYGSNYFDYWGQGTTLTVSS
VL: DIVLTQSPASLAVSLGQRATISCKASQSVDYDGDSYMNWYQQKPGQPPKLLIYAASNLESGIPARLSGSGSGTDFTLNIHPVEEEDAATYYCQQSNEDPPTFGGGTKLEIRR
notes: rodent hybridoma mAb
B5: Ab328 (antibody, V domains shown)
VH: QVQLQQSGAELAKPGASVKLSCKASGYTFTSYWMHWVKQRPGQGLEWIGYINPSSGYTKYNQKFKDKATLTADKSSSTAYMQLSSLTFEDSAVYYCARDYYGSSSWFAYWGQGTLVTVSA
VL: DIVMTQSQKFMSTSVGDRVSVTCKASQNVGTNVAWYQQKPGHSPKALIYSASYRYSGVPDRFTGSGSGTDFTLTISNVQSEDLAEYFCQRYNSYPYMFTFGGGTKLEIKR
notes: rodent hybridoma mAb
B6: Ab323 (antibody, V domains shown)
VH: QVQLQQSGAELVKPGASVKISCKTSGYTFSNYWMNWVKQRPGKGLEWIGQIFPGDADANYNGKFKGKATLTADKSSSAAFMQLSSLTSEDSAVYFCARFSYDGAFAYWGQGTLVTVS
VL: DIVMTQSHKFMSTSVGDRVSITCKASQDVSTAVAWYQQKPGQSPKPLIYWASTRHTGVPDRFTGSGSGTDYTLTISSVQTEDLALYYCQQHYSTPRTFGGGTKLEIKR
notes: rodent hybridoma mAb
B7: Ab325 (antibody, V domains shown)
VH: QVQLQQSGAELVKPGASVKISCKASGYAFSSYWMNWVKQRPGKGLEWIGQIYPGDGDTNYNGKFKGKATLTADKSSSTAYMQLSSLTSEDSAVYFCARWYYGSYYAMDYWGQGTSVTVSS
VL: DIQMTQTTSSLSASLGDRVTISCRASQDISNYLNWYQQKPDGTVKLLIYYTSRLHSGVPSRFSGSGSGTDYSLTISNLEQEDIATYFCQQGNTLPRTFGGGTKLEIKR
notes: rodent hybridoma mAb
B8: Ab327 (antibody, V domains shown)
VH: DVKLVESGEGLVKPGGSLKLSCAASGFTFSSYAMSWVRQTPEKRLEWVTYISSGGDYIYYADTVKGRFTISRDNARNTLYLQMSSLKSEDTAMYYCTRERIWLRRFFDVWGTGTTVTVSS
VL: DIVMTQSQKFMSTSVGDRVSITCKASQNVGTAVAWYQLKPGQSPKLLIYSASNRFTGVPDRFTGSGSGTDFTLTISNMQSEDLADYFCQQYSSYPLTFGSGTKLEIKR
notes: rodent hybridoma mAb
B9: Ab445 (antibody, V domains shown)
VH: EVQLVQSGAEVKKPGSSVKVSCKASGYTFSSYWMHWVRQAPGQGLEWIGYIKPSSGYTKYNQKFKDKATLTADKSTSTAYMELSSLRSEDTAVYYCARDYYGSSSWFAYWGQGTLVTVSS
VL: EIVMTQSQATMSTSVGERATLSCKASQNVGTNVAWYQQKPGQSPKALIYGASTRATGVPARFSGSGSGTDFTLTISSVEPEDFAVYYCQQYNSYPYMYTFGQGTKLEIK
notes: humanized
B10: Ab426 (antibody, V domains shown)
VH: B9 VH with S16T, V20L, S30T, P41R, G44R, N61A, K65Q, D66E, K67R, A68V
VL: EIVMTQSPATLSTSPGERATLSCRASQSVSSNLAWYQQKPGQAPRALIYSASYRYSGVPARFSGSGSGTDFTLTISSVEPEDFAVYYCQQYNSYPYMYTFGQGTKLEIK
notes: humanized
B11: Ab430 (antibody, V domains shown)
VH: EVQLVQSGAEVKKPGASVKLSCKASGYTFTSYWMHWVRQAPGQGLEWIGYIKPSSGYTKYAQKLQGRVTLTADKSTSTAYMELRSLRSDDTAVYYCARDYYGSSSWFAYWGQGTLVTVSS
VL: B10 VL
notes: humanized
B12: Ab434 (antibody, V domains shown)
VH: B11 VH with A16S, T30S, R38K, L64F, R84S, D89E
VL: B10 VL
notes: humanized
B13: Ab435 (antibody, V domains shown)
VH: B9 VH with E1Q, K12A, S16T, V20L, S30T, R38K, A68V
VL: B9 VL
notes: humanized
B14: Ab436 (antibody, V domains shown)
VH: B9 VH with A9P, S16T, V20L, S30T, P41R, G44R, K67R
VL: B9 VL
notes: humanized
B15: Ab438 (antibody, V domains shown)
VH: B11 VH with A16T, P41R, G44R, L64F, G66E, R84S, D89E
VL: B9 VL
notes: humanized
B16: Ab439 (antibody, V domains shown)
VH: B9 VH with E1Q, K12A, S16A, V20L, S30T, R38K, S84R, E89D
VL: B9 VL
notes: humanized
B17: Ab442 (antibody, V domains shown)
VH: B11 VH
VL: B9 VL
notes: humanized
B18: Ab446 (antibody, V domains shown)
VH: B11 VH with A16S, T30S, R38K, L64F, R84S, D89E
VL: B9 VL
notes: humanized
B19: Ab352 (antibody, V domains shown)
VH: B9 VH with A9P, S16T, V20L, S30T, P41R, G44R, K67R
VL: EIVMTQSPAFLSVTPGEKVTITCKASQNVGTNVAWYQQKPDQAPKALIYSASYRYSGVPSRFSGSGSGTDFTLTISSLEAEDAATYYCQQYNSYPYMYTFGQGTKLEIK
notes: humanized
B20: Ab355 (antibody, V domains shown)
VH: B9 VH with E1Q, K12A, S16A, V20L, S30T, R38K, S84R, E89D
VL: B19 VL
notes: humanized
B21: Ab406 (antibody, V domains shown)
VH: B11 VH
VL: B9 VL with G50S, T53Y, A55Y, T56S
notes: humanized
B22: Ab400 (antibody, V domains shown)
VH: B9 VH with A9P, S16T, V20L, S30T, P41R, G44R, K67R
VL: B9 VL with G50S, T53Y, A55Y, T56S
notes: humanized
B23: Ab402 (antibody, V domains shown)
VH: B11 VH with A16T, P41R, G44R, L64F, G66E, R84S, D89E
VL: B9 VL with G50S, T53Y, A55Y, T56S
notes: humanized
B24: Ab403 (antibody, V domains shown)
VH: B9 VH with E1Q, K12A, S16A, V20L, S30T, R38K, S84R, E89D
VL: B9 VL with G50S, T53Y, A55Y, T56S
notes: humanized

What follows are binders tested against T1, human ALK on the surface of NB1 cells (human, UniProt Q9UM73 21-1620) (assay: flow cytometry titration on NB1 cells, steady state).
T1 construct: ALK of NB1 cells; also called cell surface hALK; NB1 (human)
Description: KD was determined by flow cytometry. Titration of each antibody on NB1 cells for 2-4 hours at 4° C. was followed by incubation with a fluorescently-labeled secondary antibody. The normalized mean fluorescent intensity […] shown as “% Max binding” was plotted as a function of antibody concentration.
Flow cytometry was utilized to measure the affinity at steady state (KD) with which different ALK antibodies bind to ALK on the surface of NB1 cells (FIG. 3). Titration of each antibody on NB1 cells for 2-4 hours at 4° C. was followed by incubation with a fluorescently-labeled secondary antibody. The normalized mean fluorescent intensity (MFI) shown as “% Max binding” was plotted as a function of antibody concentration. The data were fit to a one site binding isotherm using GraphPad Prism, from which affinity values were derived.

T1 sequence (Q9UM73 21-1620): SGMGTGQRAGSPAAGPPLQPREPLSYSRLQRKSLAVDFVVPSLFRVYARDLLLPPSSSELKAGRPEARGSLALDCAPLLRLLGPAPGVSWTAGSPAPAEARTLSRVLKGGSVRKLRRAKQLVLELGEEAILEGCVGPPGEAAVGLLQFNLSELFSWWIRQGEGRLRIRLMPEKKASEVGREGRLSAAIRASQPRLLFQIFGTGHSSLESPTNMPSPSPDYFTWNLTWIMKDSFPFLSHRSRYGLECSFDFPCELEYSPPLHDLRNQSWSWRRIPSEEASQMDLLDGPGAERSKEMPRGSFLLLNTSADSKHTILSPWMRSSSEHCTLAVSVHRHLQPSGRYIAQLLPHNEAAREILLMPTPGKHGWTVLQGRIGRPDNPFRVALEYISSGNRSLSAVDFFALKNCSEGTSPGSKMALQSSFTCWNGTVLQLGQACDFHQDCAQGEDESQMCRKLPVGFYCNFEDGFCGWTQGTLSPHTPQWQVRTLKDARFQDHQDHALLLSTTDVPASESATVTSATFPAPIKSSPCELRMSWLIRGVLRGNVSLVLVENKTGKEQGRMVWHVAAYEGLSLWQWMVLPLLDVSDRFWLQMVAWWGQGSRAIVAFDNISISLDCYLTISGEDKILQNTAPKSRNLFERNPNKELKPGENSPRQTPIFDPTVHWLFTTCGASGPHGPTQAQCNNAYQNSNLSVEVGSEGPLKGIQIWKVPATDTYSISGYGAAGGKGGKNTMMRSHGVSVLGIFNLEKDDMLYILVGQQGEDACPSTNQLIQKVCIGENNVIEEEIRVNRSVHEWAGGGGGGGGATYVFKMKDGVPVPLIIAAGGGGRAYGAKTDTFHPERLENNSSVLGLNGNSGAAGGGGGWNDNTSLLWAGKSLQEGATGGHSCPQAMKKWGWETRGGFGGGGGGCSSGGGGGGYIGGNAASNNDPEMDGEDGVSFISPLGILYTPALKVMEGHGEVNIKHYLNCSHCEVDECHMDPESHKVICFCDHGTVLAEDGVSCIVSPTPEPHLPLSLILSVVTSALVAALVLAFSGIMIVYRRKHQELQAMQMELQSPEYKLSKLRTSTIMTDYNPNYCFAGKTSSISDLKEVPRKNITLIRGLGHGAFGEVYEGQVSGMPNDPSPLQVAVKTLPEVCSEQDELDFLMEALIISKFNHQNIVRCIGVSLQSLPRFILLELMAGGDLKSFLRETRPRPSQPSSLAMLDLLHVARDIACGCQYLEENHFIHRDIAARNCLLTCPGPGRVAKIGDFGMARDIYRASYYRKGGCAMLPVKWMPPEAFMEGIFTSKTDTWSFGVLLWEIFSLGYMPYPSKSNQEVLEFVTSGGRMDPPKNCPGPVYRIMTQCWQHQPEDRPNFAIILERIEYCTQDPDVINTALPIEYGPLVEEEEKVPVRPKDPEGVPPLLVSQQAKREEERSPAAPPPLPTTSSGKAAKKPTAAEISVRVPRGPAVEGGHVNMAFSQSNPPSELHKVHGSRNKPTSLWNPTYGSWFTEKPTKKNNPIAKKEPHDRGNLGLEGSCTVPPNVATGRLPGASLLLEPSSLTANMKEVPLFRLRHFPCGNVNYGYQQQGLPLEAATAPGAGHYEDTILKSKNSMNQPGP

| Binder | Kd |
| --- | --- |
| B1 | 0.35 nM |
| B2 | 0.34 nM |
| B3 | 3.13 nM |
| B4 | 1.55 nM |
| B5 | 0.5 nM |
| B6 | 0.08 nM |
| B7 | 0.1 nM |
| B8 | 0.4 nM |

These binders were tested against T2, purified ALK protein (BLitz, Table 20) (Homo sapiens (Human), UniProt Q9UM73 19-1038, limits assumed) (assay: BLI (BLitz), mAb on Protein A tip, purified ALK in solution).
T2 construct: also called purified ALK proteins
Method in brief: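 Humanized anti-ALK mAbs loaded at 0.5 mg/mL on Protein A tips; after stable baseline, purified ALK protein at 70 μg/mL added. Kinetic traces fit to a single binding site model to give monovalent KD.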

T2 sequence (Q9UM73 19-1038 limits assumed): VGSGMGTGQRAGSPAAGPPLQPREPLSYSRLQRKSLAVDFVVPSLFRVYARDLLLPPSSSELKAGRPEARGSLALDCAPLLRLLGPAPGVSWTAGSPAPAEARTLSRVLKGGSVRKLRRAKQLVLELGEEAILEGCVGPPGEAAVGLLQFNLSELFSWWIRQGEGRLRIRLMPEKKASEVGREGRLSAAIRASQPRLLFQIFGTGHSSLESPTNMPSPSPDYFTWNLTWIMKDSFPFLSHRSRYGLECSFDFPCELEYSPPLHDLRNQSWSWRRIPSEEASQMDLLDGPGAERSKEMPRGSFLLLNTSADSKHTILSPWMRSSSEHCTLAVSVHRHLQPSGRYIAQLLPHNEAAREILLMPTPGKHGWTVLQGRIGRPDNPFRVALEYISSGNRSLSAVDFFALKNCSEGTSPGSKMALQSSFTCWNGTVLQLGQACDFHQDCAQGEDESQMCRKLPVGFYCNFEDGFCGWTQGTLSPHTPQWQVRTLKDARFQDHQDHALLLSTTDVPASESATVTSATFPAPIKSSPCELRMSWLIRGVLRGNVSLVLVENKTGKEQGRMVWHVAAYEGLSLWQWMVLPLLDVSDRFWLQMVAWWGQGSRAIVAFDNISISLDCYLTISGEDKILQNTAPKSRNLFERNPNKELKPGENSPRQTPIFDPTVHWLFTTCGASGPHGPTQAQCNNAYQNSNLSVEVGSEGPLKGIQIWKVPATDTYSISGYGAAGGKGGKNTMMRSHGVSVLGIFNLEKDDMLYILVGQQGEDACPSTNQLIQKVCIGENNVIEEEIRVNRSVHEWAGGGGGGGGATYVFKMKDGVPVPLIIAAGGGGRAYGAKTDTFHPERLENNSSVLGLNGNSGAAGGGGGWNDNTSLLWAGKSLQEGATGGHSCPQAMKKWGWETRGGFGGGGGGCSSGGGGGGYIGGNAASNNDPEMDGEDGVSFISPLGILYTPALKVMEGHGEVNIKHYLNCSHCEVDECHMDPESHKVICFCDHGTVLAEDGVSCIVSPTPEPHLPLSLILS

| Binder | Kd |
| --- | --- |
| B9 | 521 nM |
| B10 | 868 nM |
| B11 | 211 nM |
| B12 | 329 nM |
| B13 | 317 nM |
| B14 | 120 nM |
| B15 | 310 nM |
| B16 | 138 nM |
| B17 | 219 nM |
| B18 | 393 nM |
| B19 | 77.2 nM |
| B20 | 86.5 nM |
| B21 | 110 nM |

The binders below were run against human ALK, purified (hALK) (human, UniProt Q9UM73 19-1038, limits assumed) (assay: BLI (BLitz), estimated monovalent affinity, single dose kinetics).
Description: (§1) Kinetic measurements of the monovalent affinity of the 96 humanized ALK antibody variants (Ab351-Ab446) were collected. Affinity ranking was performed using a BLitz® System (ForteBio, Menlo Park, Calif.). Humanized anti-ALK antibodies were immobilized at 0.5 mg/mL using Protein A tips. Once baseline stability was ensured, purified ALK proteins at 70 μg/mL were added. The resulting kinetic data were fit to a single binding site equation, from which the quoted monovalent KD values were derived.
(§2) KD values for both NB1 (human) cells and Neuro2a (mouse) cells were also determined.

| Binder | Kd |
| --- | --- |
| B19 | 105 nM |
| B20 | 103 nM |

These binders were tested against mouse ALK, purified (mALK) (mouse, UniProt P97793 19-1042) in the same assay as above.
Description: as §1, §2

mouse ALK, purified (mALK), sequence (P97793 19-1042 limits assumed): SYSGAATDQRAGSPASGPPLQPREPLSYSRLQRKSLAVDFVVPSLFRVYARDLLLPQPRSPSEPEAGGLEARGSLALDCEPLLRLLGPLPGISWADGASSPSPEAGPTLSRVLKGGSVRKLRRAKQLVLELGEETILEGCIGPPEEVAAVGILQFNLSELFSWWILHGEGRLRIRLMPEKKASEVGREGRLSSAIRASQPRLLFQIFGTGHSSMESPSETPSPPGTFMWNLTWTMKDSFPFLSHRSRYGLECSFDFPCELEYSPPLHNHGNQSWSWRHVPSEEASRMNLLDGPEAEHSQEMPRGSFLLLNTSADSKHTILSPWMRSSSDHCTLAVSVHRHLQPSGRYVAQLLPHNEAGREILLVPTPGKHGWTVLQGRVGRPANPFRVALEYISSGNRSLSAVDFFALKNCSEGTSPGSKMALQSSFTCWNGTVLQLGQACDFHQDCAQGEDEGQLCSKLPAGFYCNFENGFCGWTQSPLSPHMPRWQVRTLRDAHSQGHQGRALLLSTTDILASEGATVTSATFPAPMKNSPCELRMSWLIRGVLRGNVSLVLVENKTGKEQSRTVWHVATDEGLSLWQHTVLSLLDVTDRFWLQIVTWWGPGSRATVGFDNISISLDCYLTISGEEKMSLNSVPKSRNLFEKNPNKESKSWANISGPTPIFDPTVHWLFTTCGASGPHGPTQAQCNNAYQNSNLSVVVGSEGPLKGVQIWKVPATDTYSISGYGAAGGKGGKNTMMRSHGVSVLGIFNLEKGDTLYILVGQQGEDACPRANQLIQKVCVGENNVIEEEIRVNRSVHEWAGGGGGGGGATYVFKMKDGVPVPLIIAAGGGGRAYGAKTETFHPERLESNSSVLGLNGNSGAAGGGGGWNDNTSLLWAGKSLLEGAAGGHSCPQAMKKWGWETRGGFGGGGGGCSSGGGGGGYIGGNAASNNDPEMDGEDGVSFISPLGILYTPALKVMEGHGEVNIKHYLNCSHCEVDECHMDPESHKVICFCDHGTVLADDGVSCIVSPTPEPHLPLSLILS

| Binder | Kd |
| --- | --- |
| B19 | 205 nM |
| B20 | 150 nM |

What follows are binders tested against rat ALK, purified (rALK) (rat, UniProt P97793 19-1038 (mouse entry), limits assumed) in the same assay as above.
Description: as §1, §2

rat ALK, purified (rALK), sequence (P97793 other isoform, or with tags, fused parts or gaps limits assumed): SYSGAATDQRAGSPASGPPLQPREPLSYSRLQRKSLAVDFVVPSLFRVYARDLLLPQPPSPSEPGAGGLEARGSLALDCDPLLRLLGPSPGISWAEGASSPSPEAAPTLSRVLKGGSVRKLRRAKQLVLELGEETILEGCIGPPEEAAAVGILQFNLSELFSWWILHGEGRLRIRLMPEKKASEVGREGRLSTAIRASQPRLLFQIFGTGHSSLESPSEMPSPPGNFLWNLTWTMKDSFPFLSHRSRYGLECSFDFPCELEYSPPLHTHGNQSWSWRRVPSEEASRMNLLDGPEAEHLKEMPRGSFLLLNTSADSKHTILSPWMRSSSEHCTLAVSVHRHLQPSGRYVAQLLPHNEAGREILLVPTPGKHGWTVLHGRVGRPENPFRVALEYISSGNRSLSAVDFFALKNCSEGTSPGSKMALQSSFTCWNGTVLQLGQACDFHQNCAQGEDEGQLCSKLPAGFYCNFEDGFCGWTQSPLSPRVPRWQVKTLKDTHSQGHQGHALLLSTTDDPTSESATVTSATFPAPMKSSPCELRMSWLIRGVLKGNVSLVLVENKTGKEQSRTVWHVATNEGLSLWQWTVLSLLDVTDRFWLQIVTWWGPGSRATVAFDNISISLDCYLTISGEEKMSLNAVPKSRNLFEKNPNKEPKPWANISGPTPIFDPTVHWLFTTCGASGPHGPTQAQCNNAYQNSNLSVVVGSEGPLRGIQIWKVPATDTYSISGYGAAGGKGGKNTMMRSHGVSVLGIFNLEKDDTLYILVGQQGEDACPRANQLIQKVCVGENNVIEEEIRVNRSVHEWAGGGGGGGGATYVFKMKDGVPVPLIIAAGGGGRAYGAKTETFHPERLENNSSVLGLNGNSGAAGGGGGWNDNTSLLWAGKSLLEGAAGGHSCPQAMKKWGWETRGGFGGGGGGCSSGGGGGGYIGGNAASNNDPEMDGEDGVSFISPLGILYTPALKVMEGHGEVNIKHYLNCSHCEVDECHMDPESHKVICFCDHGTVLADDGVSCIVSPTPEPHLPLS

| Binder | Kd |
| --- | --- |
| B19 | 24 nM |
| B20 | 31 nM |
| B22 | 18 nM |
| B23 | 24 nM |
| B24 | 22 nM |

— US20200157236A1 (CELLDEX THERAPEUTICS, published 2020)
